Assays:
Aβ1-42 synthetic peptide = molecular target: T1, Aβ1-42 synthetic peptide (UniProt P05067 672-713); test: ELISA, Aβ1-42-coated wells, 0-37.5 nM cystatin C
T1 construct: domain: Aβ1-42; Coated on microtiter wells, freshly dissolved; Also used in the fibril and oligomerization assays; also called Aβ42
Experimental: (§1) Two different batches of each peptide were used in the experiments. Wild type and variant cystatin C, purified from conditioned media as described above, were compared to urinary cystatin C (Calbiochem Biosciences). Polystyrene microtiter plates (Immunolon 2; Dynex Technology) were coated for 16 hours at 4° C. with freshly dissolved Aβ peptides (400 ng in 100 µl of NaHCO_3 $pH$ 9.6 per well). After blocking with 200 µl Superblock (Pierce), increasing concentrations of either wild type, variant or urinary cystatin C (0-37.5 nM) in 100 µl TBS-T (20 mM Tris-HCl, 150 mM NaCl pH 7.4, containing 0.1% Tween-20) were added to the Aβ-coated wells and incubated for 3 hours at 37° C. Bound cystatin C was detected with 100 µl polyclonal anti-cystatin C antibody (1:600) followed by 100 µl horseradish peroxidase-conjugated F(ab')2 anti-rabbit IgG (1:4000, Amersham) and developed using 100 µl 3,3',5,5'-tetramethyl-benzidine as substrate; Absorbency was read at 450 nm after stopping the reaction with 100 µl 2.5N sulfuric acid. Non-linear regression analysis, estimation of dissociation constants and comparison of protein binding data were assessed for statistical significance with GraphPad Prism software (GraphPad, San Diego, Calif., USA). P values were calculated by one-way ANOVA of three independent repeated measures of duplicate samples. […]

[1] = molecular target: T2, full-length βAPP (βAPP751 cDNA, in HEK293 cells) (UniProt P05067-8 18-751, limits assumed); test: immunoprecipitation of HEK293 cell lysate proteins with anti-cystatin C antibody, immunoblot with 22C11
T2 construct: whole, on cells; Tested by co-immunoprecipitation from cell lysates, not on intact cells; also called β amyloid precursor protein; cell associated full-length βAPP
Experimental: Media was replaced 16 hours after transient transfection, harvested 24 hours later, and spun at 4,500×g for 10 minutes at 4° C. Cells were harvested in RIPA buffer (1% NP-40, 0.5% cholic acid, 0.1% SDS; 150 mM NaCl, 10 mM Tris-HCl, pH 8.0) with protease inhibitors (7.5 μg/ml Aprotinin; 5 μg/ml leupeptin; 2 mM PMSF) and centrifuged for 5 minutes at 10,000 rpm at 4° C. Cellular and secreted proteins were immunoprecipitated with either polyclonal antibodies and Protein A Sepharose (Pharmacia Biotech) for 4 hours at 4° C. or with monoclonal antibodies overnight at 4° C. and with GammaBind Plus Sepharose beads (Pharmacia Biotech) for 2 hours at 4° C.
The interaction of cystatin C with βAPP was examined in HEK293 cells stably expressing either wild type or variant cystatin C genes, and transiently transfected with either wild type βAPP or vector cDNAs. […] The data indicates binding between cystatin C and cell associated full-length as well as sβAPP.

Aβ1-40 synthetic peptide = molecular target: T3, Aβ1-40 synthetic peptide (UniProt P05067 672-711); test: ELISA, Aβ1-40-coated wells, 0-37.5 nM cystatin C
T3 construct: domain: Aβ1-40; Coated on microtiter wells, freshly dissolved; also called Aβ40
Experimental: as §1

binding result (Aβ1-42 synthetic peptide): binds
binding result [1]: binds
binding result (Aβ1-40 synthetic peptide): binds
B1: variant human cystatin C (L68Q, HCHWA-I variant) (other, UniProt P01034 27-146, looked up)
chain: SSPGKPPRLVGGPMDASVEEEGVRRALDFAVGEYNKASNDMYHSRALQVVRARKQIVAGVNYFLDVEQGRTTCTKTQPNLDNCPFHDQPHLKRKAFCSFQIYAVPWQGTMTLSKSTCQDA
notes: mature; Position 68 counts on the mature protein, not on the precursor with signal peptide; also called cystatin C-V; CysC-V

— patent US7790673 (NEW YORK UNIVERSITY, dated 2010)
